This note sets out measurements from publication PMC4775355 (Cancer research, 2016).

This series deals with the molecule itself. Description: cross-linking.

B1: Flag-PKM2 Y148F mutant (PKM2^Y148F) (enzyme)
chain: not shown
In general, stoichiometry N refers to a count of units in the complex or per binding partner. For the protein B1, the “stoichiometry N” value came to 4.
